Reference: the supplement of paper PMC9732359
± gives the uncertainty stated by the source.

Assay: protein stability index of a GFP-peptide fusion (yeast GPS) (PSI 1-4); higher = more stable; sorted into four equal gates, so the index is relative within each strain
Details: san1∆
Procedure, shortened: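 Peptides tiling yeast proteins in 17-residue segments were fused downstream of GFP, with Cherry expressed from the same plasmid. As a pooled library in yeast, mid-log cultures grown in leucine-free medium were sorted into four equal gates by GFP/Cherry fluorescence ratio. Gate plasmids were PCR-amplified and Illumina-sequenced, and barcodes linked reads to strains. Each peptide received a protein stability index equal to the sum of each gate's read frequency times its gate number.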

| Sequence | protein stability index |
| --- | --- |
| LLSENRSEKSTTNAQTK [SRP54] | 2.88 ± 0.09 |
| LLSLNSVRSLQKRIENG [SRP68] | 2.1 ± 0.091 |
| LLTLIVREYEQPDANKK [ISW2] | 3.09 ± 0.2 |

Same assay, conditions: ubr1∆

| Sequence | protein stability index |
| --- | --- |
| LADYIVEVLLVNYNSDM [NUT1] | 1.2 ± 0.039 |
| LAELINMTTIADRNDDD [SRB6] | 2.78 ± 0.076 |
| LAKKIAPGKVELAINLI [SMC2] | 2.65 ± 0.1 |
| LAPSKHQPITSEQKMKE [SIR4] | 2.29 ± 0.24 |
| LAQKKAHLAEIQLNGGS [RPL3] | 2.85 ± 0.12 |
| LARDTPSANNSSSIKST [RRP4] | 3.14 ± 0.054 |
| LARHLPAELDLRGSLLS [RPC82] | 3.15 ± 0.072 |
| LASNFDNFDYFNQRDGE [MED1] | 3.1 ± 0.11 |
| LATNSLVEEFMLLANIS [DIS3] | 2.37 ± 0.071 |
| LCLTEFENCYLEGNDIH [FAS1] | 2.95 ± 0.1 |
| LDGDRADKRGVLTGGYL [SMC3] | 3.07 ± 0.2 |
| LDPLEMEGNAQPVNFNR [RPO31] | 2.97 ± 0.1 |
| LDRISSYTAFSRLTLLL [PRP8] | 1.95 ± 0.035 |
| LDRRFEIFFKKDSLWQS [FAS1] | 2.91 ± 0.061 |
| LDTLPSEFDSRVKAMEV [RPT5] | 3.36 ± 0.1 |
| LEDELYHTNPGHSQFTS [RPN4] | 3.21 ± 0.071 |
| LEDMVFPTEIVGKRVRY [RPS7B] | 2.69 ± 0.055 |
| LEDQQRQQKLLLETKLR [SWI1] | 2.31 ± 0.17 |
| LEFRWLTSSKSVIVSQF [SIN4] | 1.42 ± 0.061 |
| LEKDAADCQAELTKTKS [YIL149C/MLP2] | 2.87 ± 0.1 |
| LELPLCPYCYKKRREYF [SIR2] | 1.98 ± 0.077 |
| LELTTGATYRGKLVESE [SMD3] | 3.38 ± 0.057 |
| LEPFLLMLEDTDGDSIL [BRR2] | 3.1 ± 0.05 |
| LEQVEFEKNTILQQRSK [MED4] | 3.27 ± 0.1 |
| LERTDLKSKVIDSPELL [RPN7] | 3.2 ± 0.076 |

| Sequence | protein stability index |
| --- | --- |
| LESEIASSSAKLIEKKS [SMC2] | 3 ± 0.055 |
| LESYKTQAKKLYHHTTK [SRP72] | 2.66 ± 0.06 |
| LETEQLSSELDSNKTLL [SMC2] | 3.31 ± 0.049 |
| LEVGRRFSPDEDFEHNN [MCD1] | 3.45 ± 0.18 |
| LFEQIGIRIKGKIVGFD [SME1] | 1.89 ± 0.096 |
| LFEQLQTVSNKEDAKAT [SRP54] | 3.18 ± 0.059 |
| LFGSPPFILEYDLMAPN [YMR129W/POM152] | 2.94 ± 0.074 |
| LFGSSNNNNNNNNSNNI [YGL172W/NUP49] | 2.6 ± 0.097 |
| LFKYQGHIGAYLIVAGV [PUP1] | 2.53 ± 0.055 |
| LFQTIEKLINNSDDCMM [ECM29] | 3.03 ± 0.09 |
| LFSLLELGEQKCQELVT [RRP46] | 2.1 ± 0.058 |
| LFSPEEVRAISVAKIRF [RPO21] | 2.39 ± 0.07 |
| LFVISTEISPMAGSQFE [RRP45] | 1.2 ± 0.11 |
| LGFEVKDQALIGTINSI [SIR2] | 2.35 ± 0.073 |
| LGLEYIIRLLPINLENN [SRB8] | 1.39 ± 0.061 |
| LGPRGVSITPGKIEKIA [SRP21] | 2.41 ± 0.039 |
| LGQLYVTMGAKDKLREF [RPN6] | 3.12 ± 0.069 |
| LGSHSSSQKDGNDFKFN [REC8] | 3.22 ± 0.057 |
| LGVPRIKEIINASKVIS [RPO31] | 1.71 ± 0.24 |
| LHKRLHGVSFKKRAPRA [RPL31A] | 3.17 ± 0.11 |
| LHLANEHGLQITHTENY [BRN1] | 2.76 ± 0.068 |
| LIALSLIMALLQFRPAP [SMC2] | 1.3 ± 0.025 |
| LIARRDDESPRFVMPNQ [RRP6] | 3.21 ± 0.061 |
| LICSIGLHSSEYKLRSL [ECM29] | 2.56 ± 0.038 |
| LIEILRLRALQLYFQKN [RRI2] | 1.04 ± 0.076 |

| Sequence | protein stability index |
| --- | --- |
| LIEKEIQPKITELKKKL [SMC1] | 3.02 ± 0.077 |
| LIENCKKRNMPLQSIPE [SWI1] | 3.05 ± 0.046 |
| LIEPLPTESYLQYIIHD [BRR2] | 2.49 ± 0.049 |
| LIESGIGTHHAGLTRSD [BRR2] | 3.43 ± 0.062 |
| LIIIAANTPVLRKSELE [RPL30] | 2.77 ± 0.13 |
| LIIKYQKYWESMRIQIL [GAL11] | 1.65 ± 0.06 |
| LINDSYINDVHLLYPPH [SSN8] | 3.25 ± 0.053 |
| LINIDTSIANAFRRIMI [RPC40] | 2.89 ± 0.049 |
| LINLAKTRVGSVTAQVY [RPC82] | 1.45 ± 0.11 |
| LIQDLLHRLTPKNVKGE [RPN1] | 3.01 ± 0.14 |
| LIQKLQNSANNNSDDED [IRR1] | 3.38 ± 0.083 |
| LIQLGVKPLESSAKRSK [SRP72] | 2.88 ± 0.045 |
| LIQSYSLLDKPDEAIEK [FAS1] | 2.79 ± 0.082 |
| LIVRAKNHTHNLPGNIT [RRP4] | 2.94 ± 0.052 |
| LKCAERQLTSMEFSNLY [NUT1] | 2.17 ± 0.032 |
| LKEPVEDIIKRTSPIDN [NUT2] | 3.2 ± 0.061 |
| LKHVLQLIFRQQTGLVD [SNU114] | 1.2 ± 0.049 |
| LKIQFILSTTLDPTDDE [SIN4] | 2.81 ± 0.099 |
| LKIYKVGDIVDIKANGS [RPL21B] | 2.08 ± 0.03 |
| LKKDIESLRGILHVRAQ [SRP72] | 2.07 ± 0.062 |
| LKKFRESLVHSALCILK [BRR2] | 2.97 ± 0.066 |
| LKKGEQKTQELNAKYQS [ISW2] | 3.29 ± 0.055 |
| LKKIRAHRGIRHFWGLR [RPS18A] | 2.62 ± 0.05 |
| LKKQLHVSHEAMREVND [YIL149C/MLP2] | 2.85 ± 0.076 |
| LKLCVQELEKRMPMDFK [PRE1] | 3.37 ± 0.085 |

| Sequence | protein stability index |
| --- | --- |
| LKMMKLIVDTHVQFRLG [PRP8] | 1.93 ± 0.048 |
| LKRNRIRNARSIRAEAV [POP1] | 2.59 ± 0.13 |
| LKSESATSQYLKQDLKK [YGL172W/NUP49] | 2.95 ± 0.079 |
| LKSKVIDSPELLSLIST [RPN7] | 2.61 ± 0.041 |
| LKSPVLSKLCVPVANQF [QCR7] | 2.01 ± 0.031 |
| LKTEAANVLDPSLRKLI [BRR2] | 2.68 ± 0.039 |
| LKWSACTSLMDIIVAIK [IRR1] | 2.83 ± 0.071 |
| LLAEYDNIYRNLQKIDK [MED4] | 2.32 ± 0.028 |
| LLAKRLSERKAEKAEIR [RPS6A] | 3.33 ± 0.084 |
| LLCALDRKDQDDRDHFG [RPB2] | 3.47 ± 0.05 |
| LLERGRLRKRVTIIPLD [SMC2] | 2.12 ± 0.057 |
| LLETKLRQQYEIELKKL [SWI1] | 2.92 ± 0.11 |
| LLFINSSKLVDVYTLPS [YML103C/NUP188] | 2.01 ± 0.054 |
| LLFWTDPRNLVNQTGST [YCG1] | 2.81 ± 0.038 |
| LLGKDNEDDALIYGISD [AAR2] | 2.7 ± 0.14 |
| LLGPTLEDHTPPEDKPN [QCR10] | 2.94 ± 0.033 |
| LLIHRKGLTYLHLDYNF [PRP8] | 1.56 ± 0.048 |
| LLLRCDDRVDKKFVSQI [POP3] | 3.22 ± 0.042 |
| LLLSPDQWYCIDKLEDL [ITC1] | 2.48 ± 0.077 |
| LLPTIKRTICKKCHRLL [RPR2] | 2.34 ± 0.034 |
| LLQLIQSQPQEKFSEKM [ECM29] | 2.47 ± 0.071 |
| LLRYGGAFTIALAYAGT [RPN2] | 2.24 ± 0.051 |
| LLSENRSEKSTTNAQTK [SRP54] | 2.92 ± 0.064 |
| LLSLNSVRSLQKRIENG [SRP68] | 2.25 ± 0.078 |
